Substitutions are numbered along the chain they refer to.

B1: S24-278 (antibody, V domains shown)
VH: QVQLVQSGAEVKKPGASVKVSCKASGYTFTGYYMHWVRQAPGQGLEWMGWINPNSGDTNYAQKFQGWVTMTRDTSLSTAYMELSRLKSDDTAVYYCARVGVGEYSGRHYYYYGMDVWGQGTTVTVSS
VL: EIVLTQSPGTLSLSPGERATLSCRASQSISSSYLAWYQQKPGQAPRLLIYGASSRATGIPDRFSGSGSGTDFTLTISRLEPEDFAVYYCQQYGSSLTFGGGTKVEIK
notes: recombinant human IgG1
B2: S24-1345 (antibody, V domains shown)
VH: QLQLQESGPGLVKPSETLSLTCTVSGGSISSSSYYWGWIRQPPGKGLEWIGSIYYSGSTYYNPSLKSRVTISVDTSKNQFSLKLSSVTAADTAVYYCARRIRRPTSEVVITYVFDYWGQGTLVTVSS
VL: AIQLTQSPSSLSASVGDRVTITCRASQGISSALAWYQQKPGKAPKLLIYDASSLESGVPSRFSGSGSGTDFTLTISSLQPEDFATYYCQQFNSYLTFGGGTKVEIK
B3: S24-636 (antibody, V domains shown)
VH: EVQLVESGGGLVQPGGSLRLSCAASGFTLSSYWMSWVRQAPGKGLEWVANIKQDGSEKYYVDSVKGRFTISRDNAKNSLYLQMNSLRAEDTAVYYCARDLTATWFDPWGQGTLVTVSS
VL: QTVVTQEPSFSVSPGGTVTLTCGLSSGSVSTSYYPSWYQQTPGQAPRTLIYSTNKRSSGVPDRFSGSILGNKAALTITGAQADDESDYYCVLYMGSGMSVFGGGTKLTVL
B4: S24-1378 (antibody, V domains shown)
VH: EVQLVESGGGLVQPGGSLRLSCAASGFTVSSNYMSWVRQAPGKGLEWVSVIYSGGSTYYADSVKGRFTISRHNSKNTLYLQMNSLRAEDTAVYYCAREGYCTNGVCYRHAFDIWGQGTMVTVSS
VL: B3 VL with K55T, M98I
notes: recombinant human IgG1
B5: S564-152 (antibody, V domains shown)
VH: QVQLVESGGGVVQPGRSLRLSCAASGFTFSYYGMHWVRQAPGKGLEWVAVIWYDGSNKHYADSVKGRFTISRDNSKNTLYLQMNSLRAEDTAVYYCAKNAAPYCSGGSCYGTYFDYWGQGTLVTVSS
VL: DIQMTQSPSSLSASVGDRVTITCQASQDINNYLNWYQQKPGKAPKLLIYDASNLETGVPSRFSGSGSGTDFTFTISSLQPEDIATYYCQQYDNVPPHTFGQGTKLEIK
notes: recombinant human IgG1
B6: S564-138 (antibody, V domains shown)
VH: QVLLVQSGAEVKKPGASVKVSCKASGYTFTGYYLHWVRQAPGQGLEWMGWINPISGGTNYAQNFQDRVTMTRDTSIITAYMELSRLRSDDTAVYYCARLAYYYDSSAYRGAFDIWGQGTMVTVSS
VL: QSALTQPASVSGSPGQSITISCTGTSSDVGGYNYVSWYQQHPGKAPKLMIYEVSNRPSGVSDRFSGSKSGNTASLTISGLQAEDEADYYCSSYTSSSTYVFGTGTKVTVL
notes: recombinant human IgG1
B7: S564-14 (antibody, V domains shown)
VH: EVQLVESGGGLVQPGGSLRLSCAASGLTFSSYWMSWARQAPGKGLEWVANIKKDGSEKYYVDSVKGRFTISRDNAKNSLYLQMNSLRVEDTAVYYCASEPPHYGGNSGAEYFQHWGQGTLVTVSS
VL: SYVLTQPPSVSVAPGKTARITCGGNNIGSKSVHWYQQRPGQAPVLVIYYDSDRPSGIPERFSGSNSGNTATLTISRVEAGDEADYYCQVWDSSSDHHYVFGTGTKVTVL
notes: recombinant human IgG1
B8: S24-1224 (antibody, V domains shown)
VH: QVQLVQSGAEVKKPGASVRVSCKASGYTFTSYYIYWVRQAPGQGLEWMGVINPSGGSTSYAQKFQGRVTLTRDTSTSTVYMDLSSLRSEDTAVYYCARDPIMWEVVTRGRGNWFDPWGQGTLVTVSS
VL: QSVLTQPPSVSGAPGQRVTIPCTGSSFNIGAGYDVHWYQQLPGTAPKLLIFGNSNRPSGVPDRFSGSRSGTSASLAITGLQAEDEADYYCQSYDSSLSGVVFGGGTTLTVL
notes: recombinant human IgG1
B9: S20-74 (antibody, V domains shown)
VH: QVQLQESGPGLVKPSETLSLTCTVSGGSISSHYWSWIRQPPGKGLEQIGYMYYSGSTNYNPSLKSRVIISVDTSKNQFSLKLSSVTAADTAVYYCAGRDQLLYGADGFDIWGQGTMVTVSS
VL: QSALTQPPSASGSPGQSVTISCTGTSSDVGGYNYVSWYQQHPGKAPKLMIYEVSKRPSGVPDRYSGSKSGNTASLTVSGLQAEDEADYYCSSYAGSSNHVIFGGGTKLTVL
notes: recombinant human IgG1
B10: S24-1384 (antibody, V domains shown)
VH: EVQLVESGGGLVQPGGSLRLSCAVSGFTFSSYSMNWVRQAPGKGLEWVSYISSSSSIIYYADSVKGRFTISRDNAKNSLYLQMNSLRAEDTAVYYCARDFLDYSRSYSYGMDVWGQGTTVTVSS
VL: SYVLTQPPSVSVAPGQTARITCGGDNIGSKNVHWYQQKPGQAPVLVVFDDSDRPSGIPERFSGSNSGNTATLTISRVEAGDEADYYCQVWDSSSDHYVVFGGGTKLTVL
B11: S144-1079 (antibody, V domains shown)
VH: QVQLVQSGAEVKKPGSSVKVSCKASGDTFGSYSITWVRQAPGQGLEWMGRIIPVLGIANYAQKFQGRVTITADKSTSTAYMELSSLRSEDTAVYYCAGGGCSGGNCYSWYNWFDPWGQGSLVTVSS
VL: EIVLTQSPGTLSLSPGERATLSCRASQSVSSNYLAWYQQKPGQAPRLLIYGASSRATGIPERFSGSGSGTDFTLTISRLEPEDFAVYYCQQYGRSPYTFGQGTKLEIK
notes: recombinant human IgG1
B12: S144-67 (antibody, V domains shown)
VH: EVQLVQSGAEVKKPGESLKISCKGSGYSFTTYWIAWVRQMPGKGLEWVGIIYPDDSDTRYSPSFQGQVTISADKSIGTAYLQWSSLKASDTAMYYCARGQYYDFWSGAGGVDVWGQGTTVTVSS
VL: QSVLTQPPSVSGAPGQRVTISCTGSRSNIGAGYDVQWYQQVPGTAPKLLISGNSNRPSGVPDRFSGSKSGTSASLAITGLQAEDEADYYCQSYDSSLSGLRVFGGGTKLTVL
notes: recombinant human IgG1
B13: S144-509 (antibody, V domains shown)
VH: EVQLVQSGAEVKKPGESLKISCKGSAYTFTTYWIGWVRQMPGKGLEWMGIIYPGDSDTRYSPSFQGQVTISADKSISTAYLQWSSLKASDTAMYYCARLLLVAGPFDYWGQGTLVTVSS
VL: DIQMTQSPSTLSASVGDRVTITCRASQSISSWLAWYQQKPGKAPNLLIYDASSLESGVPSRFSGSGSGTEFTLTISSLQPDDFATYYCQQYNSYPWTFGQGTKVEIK
notes: recombinant human IgG1
B14: S144-69 (antibody, V domains shown)
VH: EVQLVQSGAEVKKPGESLKISCKGSGYSFTSYWIGWVRQMPGKGLEWMGIIYPGDSDTRYSPSFQGQVTISADKSITTAYLQWSSLKASDTAMYYCARTQTTNWFDSWGQGTLVTVSS
VL: DIQMTQSPSTLSVSVGDRVTITCRASQSVSSWLAWYQQKPGKAPKLLIYDASSLESGVPSRFSGSGSGTEFTLTISSLQPDDFATYYCQQYNSFYTFGQGTKLEIK
notes: recombinant human IgG1
B15: S144-1406 (antibody, V domains shown)
VH: QVQLVQSGAEVKKPGASVKVSCKASGYTFTTYAMHWVRQAPGQRLEWMGWINAGNGNTKYSQNFQGRVTITRDTSASTAYMELSSLRSEDTAVYYCASLVGGDSSSWYDYMDVWGKGTTVTVSS
VL: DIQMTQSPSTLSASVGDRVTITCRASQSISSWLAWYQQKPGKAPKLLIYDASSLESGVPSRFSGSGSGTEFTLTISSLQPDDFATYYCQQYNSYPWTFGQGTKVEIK
notes: recombinant human IgG1
B16: S144-466 (antibody, V domains shown)
VH: EVQLVQSGAEVKKPGESLKISCKGSGYRFTRYWIGWVRQMPGKGLEWMGIIYLGDSETRYSPSFQGQVTISADNSISTAYLQWSSLKASDTAMYYCARSSNWNYGDYWGQGTLVTVSS
VL: DIQMTQSPSTLSASVGDRVTITCRASQSITSWLAWYQQKSGKAPKLLIYDASSLESGVPSRFSGSGSGTEFTLTISSLQPDDFATYYCQQYNSYPWTFGQGTKVEIK
notes: recombinant human IgG1

T1 sequence (P0DTC8 16-121, tags left off): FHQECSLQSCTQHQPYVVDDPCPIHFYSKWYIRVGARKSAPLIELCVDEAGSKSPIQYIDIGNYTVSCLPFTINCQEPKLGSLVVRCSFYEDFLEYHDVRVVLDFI

One assay addresses T1, SARS-CoV-2 ORF8 protein (SARS-CoV-2, UniProt P0DTC8 16-121).
T1 construct: domain: Ig-like domains; also called open reading frame 8
The assay can be described thus: mAb table, Specificity column (recombinant IgG1; ELISA). On the technique in general: In an ELISA, binding on a coated surface is turned into a signal by an enzyme label.
Regarding B1, the binding result is given as “binds”. Still for that read-out and setting: under B2 stands “binds”; under B3, “binds”. The same measure, in the same setting: under B4 stands “binds”.

In a further assay the target is SARS-CoV-2 spike receptor-binding domain (SARS-CoV-2, UniProt P0DTC2 319-541). The assay is described as above.
For B5, the binding result is given as “binds”. Regarding B6, the binding result is “binds”.

For the molecule B7, the binding result was “binds”. Still for that read-out and setting: under B8 stands “binds”; under B9, “binds”; under B10, “binds”. For the molecule B11, the binding result is reported as “binds”. For the molecule B12, the binding result is “binds”. On the same count and under the same terms, under B13 stands “binds”; under B14, “binds”; under B15, “binds”. Still for that read-out and setting: under B16 stands “binds”.

These data come from patent publication US20240002477A1 (UNIVERSITY OF CHICAGO, published 2024).
